Article PMC7825114, “Studying GGDEF Domain in the Act: Minimize Conformational Frustration to Prevent Artefacts” (Life, 2021)

Target: the molecule itself
Assay: SEC; FPLC (AKTA system), buffer A (Table S1); multiple runs on diluted protein to allow c-di-GMP to dissociate on the column

B1: PleD from C. crescentus (enzyme, UniProt Q9A5I5 1-454, looked up)
chain: MSARILVVDDIEANVRLLEAKLTAEYYEVSTAMDGPTALAMAARDLPDIILLDVMMPGMDGFTVCRKLKDDPTTRHIPVVLITALDGRGDRIQGLESGASDFLTKPIDDVMLFARVRSLTRFKLVIDELRQREASGRRMGVIAGAAARLDGLGGRVLIVDDNERQAQRVAAELGVEHRPVIESDPEKAKISAGGPVDLVIVNAAAKNFDGLRFTAALRSEERTRQLPVLAMVDPDDRGRMVKALEIGVNDILSRPIDPQELSARVKTQIQRKRYTDYLRNNLDHSLELAVTDQLTGLHNRRYMTGQLDSLVKRATLGGDPVSALLIDIDFFKKINDTFGHDIGDEVLREFALRLASNVRAIDLPCRYGGEEFVVIMPDTALADALRIAERIRMHVSGSPFTVAHGREMLNVTISIGVSATAGEGDTPEALLKRADEGVYQAKASGRNAVVGKAA
notes: PleD, diguanylate cyclase of C. crescentus; In the functional assay the protein was also used after treatment with NaF and BeCl2 (beryllium fluoride, mimics phosphorylation); source: E. coli BL21 (DE3), purified (Ni2+-IMAC HisTrap, multiple FPLC runs)
stoichiometry N: 2
